Data published in PMC6050341, “Direct observation of DNA target searching and cleavage by CRISPR-Cas12a”.

Experiments:
AsCas12a WT [1] = target: T1, AsCas12a WT (Acidaminococcus sp., UniProt U2UMQ6 1-1307); test: single-molecule FRET; 10 mM Mg2+; 20 nM RNP; transient S1 lifetime 0.13 +/- 0.01 s; stable stage II lifetime 94 s; smFRET: 10 mM Tris-HCl pH 8.0, 100 mM NaCl (100 mM KCl in Figs 4, 5), 10 mM MgCl2, 1 mM DTT, oxygen scavenger, 37 C; SpCas9 in NEB buffer 3
[2] = target: T2, dAsCas12a (catalytically dead) (Acidaminococcus sp., UniProt U2UMQ6 1-1307, E993A); test: single-molecule FRET; 10 mM Mg2+; stable binding reached; smFRET: 10 mM Tris-HCl pH 8.0, 100 mM NaCl (100 mM KCl in Figs 4, 5), 10 mM MgCl2, 1 mM DTT, oxygen scavenger, 37 C; SpCas9 in NEB buffer 3; conditions: protein: recombinant; tags: His tag implied (pET28b, Ni-NTA); label: crRNA 3' Cy5; DNA Cy3, 5' biotin; DNA 5' overhang 2 nt
AsCas12a WT [3] = target: T1, AsCas12a WT; test: single-particle tracking (TIRF); loose binding; drift rate rises with flow; smFRET: 10 mM Tris-HCl pH 8.0, 100 mM NaCl (100 mM KCl in Figs 4, 5), 10 mM MgCl2, 1 mM DTT, oxygen scavenger, 37 C; SpCas9 in NEB buffer 3
[4] = target: T2, dAsCas12a (catalytically dead); test: single-molecule FRET; 10 mM Mg2+; 100 mM KCl; no specific binding events (t < 30 ms); smFRET: 10 mM Tris-HCl pH 8.0, 100 mM NaCl (100 mM KCl in Figs 4, 5), 10 mM MgCl2, 1 mM DTT, oxygen scavenger, 37 C; SpCas9 in NEB buffer 3; conditions: protein: recombinant; tags: His tag implied (pET28b, Ni-NTA); label: crRNA 3' Cy5; DNA Cy3, 5' biotin; DNA 5' overhang 2 nt
AsCas12a WT [5] = target: T1, AsCas12a WT; test: single-molecule FRET; 5 nM AsCas12a, 10 nM crRNA; no stable binding, only short events; smFRET: 10 mM Tris-HCl pH 8.0, 100 mM NaCl (100 mM KCl in Figs 4, 5), 10 mM MgCl2, 1 mM DTT, oxygen scavenger, 37 C; SpCas9 in NEB buffer 3
AsCas12a WT [6] = target: T1, AsCas12a WT; test: single-molecule FRET; 10 mM Mg2+; 10 nM protein, 20 nM crRNA; smFRET: 10 mM Tris-HCl pH 8.0, 100 mM NaCl (100 mM KCl in Figs 4, 5), 10 mM MgCl2, 1 mM DTT, oxygen scavenger, 37 C; SpCas9 in NEB buffer 3
AsCas12a WT [7] = target: T1, AsCas12a WT; test: single-particle tracking (TIRF); 1D diffusion, then stable stall at target about 50 s; smFRET: 10 mM Tris-HCl pH 8.0, 100 mM NaCl (100 mM KCl in Figs 4, 5), 10 mM MgCl2, 1 mM DTT, oxygen scavenger, 37 C; SpCas9 in NEB buffer 3

B1: DNMT1 crRNA + target DNA WT (Fig 2) (mixed)
RNA: AAUUUCUACUCUUGUAGAUCUGAUGGUCCAUGUCUGUUACUC
DNA 1: TTTTTTCACTTGACAGGCGAGTAACAGACATGGACCATCAGGAAACATTAACGTACT
DNA 2: AGTACGTTAATGTTTCCTGATGGTCCATGTCTGTTACTCGCCTGTCAAGTG
modifications: internal amino-dT for dye
binding result (AsCas12a WT [1]): binds

B2: DNMT1 crRNA + 17 match DNA (mixed)
RNA: AAUUUCUACUCUUGUAGAUCUGAUGGUCCAUGUCUGUUACUC
DNA 1: TTCACTTGACAGGCACTCGTCAGACATGGACCATCAGGAAACATTAACGTACT
DNA 2: AGTACGTTAATGTTTCCTGATGGTCCATGTCTGACGAGTGCCTGTCAAGTG
binding result [2]: binds

B3: DNMT1 crRNA + lambda DNA (mixed)
RNA: AAUUUCUACUCUUGUAGAUCUGAUGGUCCAUGUCUGUUACUC
binding result (AsCas12a WT [3]): binds

B4: DNMT1 crRNA + 0 match DNA (mixed)
RNA: AAUUUCUACUCUUGUAGAUCUGAUGGUCCAUGUCUGUUACUC
DNA 1: TTCACTTGACAGGCACTCGTCTCAACGCACACTGATAGAAACATACACGTACT
DNA 2: AGTACGTGTATGTTTCTATCAGTGTGCGTTGAGACGAGTGCCTGTCAAGTG
binding result [4]: no binding

B5: DNMT1 crRNA + target w/o PAM (mixed)
RNA: AAUUUCUACUCUUGUAGAUCUGAUGGUCCAUGUCUGUUACUC
DNA 1: TTCACTTGACAGGCGAGTAACAGACATGGACCATCAGGAAGCATAAGCGTACT
DNA 2: AGTACGCTTATGCTTCCTGATGGTCCATGTCTGTTACTCGCCTGTCAAGTG
binding result (AsCas12a WT [5]): no binding

B6: DNMT1 crRNA + target WT (Fig 5) (mixed)
RNA: AAUUUCUACUCUUGUAGAUCUGAUGGUCCAUGUCUGUUACUC
DNA 1: GGATCTCTTAAGTCGTTGAGTAACAGACATGGACCATCAGGAAACACAGTGCAGTATTAGCACTTTTT
DNA 2: GTGCTAATACTGCACTGTGTTTCCTGATGGTCCATGTCTGTTACTCAACGACTTAAGAGATCC
binding result (AsCas12a WT [6]): binds

B7: 80% crRNA + 21 kb DNA (mixed)
RNA: AAUUUCUACUCUUGUAGAUACGGUCGAGCGUCAGCGUCCGGG
binding result (AsCas12a WT [7]): binds
